Assay results reported in patent publication US8598081B2, “Specific delivery of agrochemicals” (priority 2010, dated 2013).

Assays:
gum arabic = experiment: VHH binding to gum arabic in ELISA; design: species or system acacia tree
Description: Titration of VHH antibody fragments was performed on ELISA plates (Maxisorp, Nunc) coated with 100 μl per well 100 μg/ml gum arabic in 50 mM carbonate pH 9.6. Plates were coated at 4° C. overnight and coating was continued at room temperature for 1 hour on the next day. Plates were washed three times with PBS/0.05%-TWEEN®-20 and blocked with 5% skimmed milk in PBS for 1 hour. Four-fold serial dilutions of purified VHH antibody fragments were prepared in 1% MPBS/0.05%-TWEEN®-20 in polypropylene 96-well plates. Antibody concentrations ranged from 3 μg/ml to 12 ng/ml. Antibody dilutions were transferred to the gum arabic-coated plates and VHH antibody fragments were allowed to bind for 1 hour at room temperature. Bound VHH were detected with sequential incubations with monoclonal mouse anti-histidine antibodies (Abd Serotec) and rabbit anti-mouse IgG whole molecule antibodies conjugated with alkaline phosphatase (RaM/AP) (Sigma) in 1% MPBS/0.05%-TWEEN®-20. Unbound antibodies were removed by washing three times with PBS/0.05%-TWEEN®-20 after each antibody incubation. The plates were washed an additional two times with PBS and 100 μl pNPP disodium hexahydrate substrate (Sigma) was added to each well. The absorbance at 405 nm was measured and plotted as function of antibody concentration (see Table 1).

potato lectin = biological target: T1, potato lectin (Solanum tuberosum, UniProt Q9S8M0); experiment: VHH binding to potato lectin in ELISA; settings: Table 2; Blank (no antigen coating); VHH 3 μg/ml
T1 construct: purchased Sigma
T1 sequence (Q9S8M0 whole entry, looked up): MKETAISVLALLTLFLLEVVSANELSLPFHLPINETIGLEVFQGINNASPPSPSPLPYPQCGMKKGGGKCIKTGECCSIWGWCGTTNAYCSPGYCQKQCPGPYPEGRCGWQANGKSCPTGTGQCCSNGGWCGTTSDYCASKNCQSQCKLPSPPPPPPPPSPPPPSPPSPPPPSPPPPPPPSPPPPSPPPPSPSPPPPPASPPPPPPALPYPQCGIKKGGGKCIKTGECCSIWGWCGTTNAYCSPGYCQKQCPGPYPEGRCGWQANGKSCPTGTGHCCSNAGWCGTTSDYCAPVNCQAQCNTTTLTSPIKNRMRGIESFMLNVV
Description: ELISA plates (Maxisorp, Nunc) coated with 100 μl per well 100 μg/ml potato lectin (Sigma) in PBS were coated at 4° C. overnight and coating was continued at room temperature for 1 hour on the next day. Plates were washed three times with PBS/0.05%-TWEEN®-20 and blocked with 5% skimmed milk in PBS for 1 hour. VHH (3 μg/ml) were transferred to the potato lectin-coated plates and VHH antibody fragments were allowed to bind for 1 hour at room temperature. Bound VHH were detected with sequential incubations with monoclonal mouse anti-histidine antibodies (Abd Serotec) and rabbit anti-mouse IgG whole molecule antibodies conjugated with alkaline phosphatase (RaM/AP) (Sigma) in 1% MPBS/0.05%-TWEEN®-20. Unbound antibodies were removed by washing three times with PBS/0.05%-TWEEN®-20 after each antibody incubation. The plates were washed an additional two times with PBS and 100 μl pNPP disodium hexahydrate substrate (Sigma) was added to each well and the absorbance at 405 nm was measured (see Table 2).

[1] = test system: leaf surface of potato leaves; experiment: VHH binding to non-fixed leaf discs, potato; design: species or system potato (variety Desiree); settings: 5 μg/ml, detection with anti-histidine Alexa-488
Description: VHH binding to non-fixed leaf discs of potato (variety Desiree), black nightshade, grass, wheat or azalea was investigated. For comparison, binding of CBM3a to non-fixed leaf discs of potato (variety Desiree) was analyzed in parallel. Leaf discs were prepared by punching a fresh potato leaf with a 5 mm belt hole puncher tool. Leaf discs were put immediately in wells of a 96-well plate containing 200 μl per well 5% MPBS or PBS, and incubated for 30 minutes. Leaf discs were transferred to solutions containing 5 μg/ml VHH antibody fragment, respectively, 5 μg/ml CBM3a in 2% MPBS or PBS and incubated for 60-90 minutes. Unbound VHH or CBM3a proteins were removed by washing three times with 2% MPBS or PBS. Bound VHH or CBM3a proteins were detected with incubation with monoclonal mouse anti-histidine antibodies directly conjugated with Alexa-488 fluorescent dye (Abd Serotec) in 1% MPBS for 1 hour. Unbound antibodies were removed by washing three times with PBS. Leaf discs were put on glass slides, covered with cover slips, and analyzed by microscopy or on a macrozoom microscope system (Nikon) or a SP5 confocal microscope system (Leica).

B1: VHH 5D4: VHH sequence; SEQ ID NO:20 by order of the list (protein, listed as Lama glama)
VHH: QVQLQESGGGLVQPGGSLRLSCAASGFDMRRFGIGWFRQVAGKEREGVSCSNVHDGTTYYTNDVKGRFTIVRDNTKNMLYLQMNKLRPEDTAVYSCATTDCEATAWGTYRGYFGQGTQVTVSS
modifications: 5D4
absorbance at 405 nm (gum arabic; Table 2, gum arabic coating, VHH 3 μg/ml): 0.530
absorbance at 405 nm (gum arabic; [VHH] 3 μg/ml (200 nM), gum arabic − (well without gum arabic)): 0.075
absorbance at 405 nm (potato lectin): 0.072
binding to native potato leaf surface (fluorescence microscopy) [1]: binding leaf surface, stomata, glandular trichomes, and leaf hairs
binding to native potato leaf surface (fluorescence microscopy) ([1]; listed as 5D4): clearly binding to trichomes, stomata and cuticle
